In general, stoichiometry N refers to a count of units in the complex or per binding partner.

In test [1] the target is DAPK2_RNTD, full-length human DAPK2 mutant with the C terminus S367STS370 changed to R367NTD370, autophosphorylated (human) (UniProt Q9UIK4). Kind of test: AUC; sedimentation velocity, DAPK2_RNTD alone at 25-350 μM; 20 °C, 42,000 rev./min; 50 mM HEPES-NaOH pH 7.5, 150 mM NaCl, 1 mM TCEP; dimer to monomers, KD from the ratios of the peak areas.
The target of test [2] is FAM-ctDAPK2-pT369 peptide (FAM-RRRSSpTS) (human). Kind of test: fluorescence polarisation; as a1 but with 100 µM Fusicoccin A (FC-A); apparent KD. Background: In fluorescence polarisation assays a small probe gives low polarisation when free and higher when bound to something large.
Test [3] shares this target. Briefly: fluorescence polarisation; 14-3-3γ (160 µM and binary dilution series) incubated 1 h with 50 nM FAM-labelled peptide; 20 mM HEPES-NaOH pH 7.4, 150 mM NaCl, 0.1% Tween 20, 0.1% BSA; one-site-binding model; apparent KD.

Take “DAPK2_RNTD, full-length human DAPK2 mutant with the C terminus S367STS370 changed to R367NTD370, autophosphorylated (from UniProt Q9UIK4 1-370) (enzyme)”: in test [1], the Kd came out at 100000 nM and the stoichiometry N is 2.
On to “Human 14-3-3γ WT (from UniProt P61981 1-247) (natural protein)”, for which the values for the Kd in test [2] and in test [3] were 4.4 nM and 114 nM, respectively.

For the origin of these results see PMC8376927.
